In patent US20250302974A1, “LECTIN-DRUG CONJUGATES” (UNICHEM LABORATORIES LIMITED, priority 2021, published 2025):

Columns and labels:
[1] = test system: bladder cancer cells (T24); experiment: Colocalization study in cell organelles, confocal microscopy, FITC-tagged lectin; type: cell-based; conditions: 100 μg/mL FITC-labelled, 2 h
Protocol: Study was performed to analyze the localization of SEQ ID NO 2 (test item) in cell organelles using Confocal microscopy.
Test Item provided as aqueous solution was tagged with FITC label at Bioklone Biotech Pvt Ltd. Resultant concentration of FITC tagged test Item was 1 mg/mL.
The stock solution of Test Item was diluted in Serum Free Medium (SFM) at single concentration—100 μg/mL.
Cells were plated on a glass coverslip at a density of 0.1×10^6 cells per well.
Following the incubation cells were washed with PBS (3 washes) and fixed using 4% paraformaldehyde for 10 min at RT. After fixation, cells were permeabilized using 0.5% IGEPAL for 10 min at RT (Permeabilization was not done for cells that were stained with Pan-Cadherin). Post permeabilization, cells were blocked using 5% normal goat serum for 1 hour at RT. Post blocking, cells were treated with organelle specific markers for 1.5 hours at RT followed by secondary antibody for 2 hours at RT.
Following antibodies were used for different organelles:
Post incubation, cells were washed using PBST (3 washes) and PBS (3 washes) and stained with DAPI (nucleus stain) for 3 min at RT.
Cells were washed (3 washes) and mounted on a glass slide using Prolong Glass antifade mountant. Imaging was done using Confocal fluorescence microscope (Make: Olympus FV1000) at AIRF, JNU. Images were captured using software FluoView. […]

[2] = test system: A549 Lungs; experiment: Cytotoxic effect by MTT assay, 48 h; conditions: for Percent cytotoxicity wrt control: 48 h
Protocol: Cells were treated with Test Items at various concentrations (0.0001 μM-10 μM) for 48 h. The cells corresponding to Positive Control group were treated with Doxorubicin at a concentration ranging from 0.1 μM-100 μM. The Untreated cells were used as Control. After 48 h of incubation, the effect of Test Items on cytotoxicity of cells was determined by MTT assay, the plates were taken out and 20 μl of 5 mg/m1 of MTT 3-(4,5-dimethythiazol-2-yl)-2,5-diphenyl tetrazolium bromide solution was added to all the wells. Cells were incubated for 3 h at 37° C. The supernatant was aspirated. 150 μl of DMSO was added to each well to dissolve formazan crystals. The absorbance of each well was then read at 540 nm using Synergy HT micro plate reader.
The % Cytotoxicity was calculated using the formula:
Where, X=Absorbance of cells treated with Test Item; R=Absorbance of Control cells (Untreated cells maintained in growth medium only).
Selectivity Index was calculated using the formula:
SI=IC50 in Normal cell/IC50 in cancer cell.
Activity scores of the Selective Index values were categorized as: • Not selective (SI value ≤1) • Moderately selective (1<SI value <5) • Selective (SI value ≥5)

[3] = Glycan binding study, O-Glycan array containing 94 glycans; conditions: T-antigen and its extended core structures

B1: SEQ ID NO: 2: recombinant variant of the S. rolfsii lectin amino acid sequence (reported as Rec-2 in WO2010/095143) (protein)
chain: TYKITVRVYQTNPDAFFHPVEKTVWKYANGGTWTITDDQHVLTMGGSGTSGTLRFHADNGESFTATFGVHNYKRWCDIVTNLAADETGMVINQQYYSQKNREEARERQLSNYQVKNAKGRNFQIVYTEAEGNDLHANLIIG
colocalization in cell organelles [1]: colocalized in Mitochondria, Endoplasmic reticulum, Golgi bodies and Plasma membrane | localization in the nuclear envelope [1]: no localization was observed | Percent cytotoxicity wrt control ([2]; A549, 0.0001 μM): −0.5% | Percent cytotoxicity wrt control ([2]; A549, 0.001 μM): −15.5% | Percent cytotoxicity wrt control ([2]; A549, 0.01 μM): −1.1% | Percent cytotoxicity wrt control ([2]; A549, 0.1 μM): −6.9% | Percent cytotoxicity wrt control ([2]; A549, 1 μM): 31.9% | Percent cytotoxicity wrt control ([2]; A549, 10 μM): 48.2% | IC50 ([2]; read-out: IC50 Values, A549 Lungs, after 48 h of treatment): ≥ 10 µM | binding profile to O-glycans (in words) [3]: strong and broad binding profile
